According to US20080166364A1 (COVX TECHNOLOGY IRELAND, published 2008):
Non-standard residues stand in square brackets, D forms with d. No end group written: not given here. Phe(4-NO2) = N[C@@H](Cc1ccc([N+](=O)[O-])cc1)C(=O)O; Phe(4-COOH) = N[C@@H](Cc1ccc(C(=O)O)cc1)C(=O)O; Bpa = N[C@@H](Cc1ccc(C(=O)c2ccccc2)cc1)C(=O)O; Hyp = O=C(O)[C@@H]1C[C@@H](O)CN1; 0P linker = not defined here; acyl = not defined here; ThA = thiazolylalanine

T1: human angiopoietin-2 protein (human, UniProt O15123 19-496)
T1 construct: bought; also called Ang-2; Ang2
T1 sequence (looked up): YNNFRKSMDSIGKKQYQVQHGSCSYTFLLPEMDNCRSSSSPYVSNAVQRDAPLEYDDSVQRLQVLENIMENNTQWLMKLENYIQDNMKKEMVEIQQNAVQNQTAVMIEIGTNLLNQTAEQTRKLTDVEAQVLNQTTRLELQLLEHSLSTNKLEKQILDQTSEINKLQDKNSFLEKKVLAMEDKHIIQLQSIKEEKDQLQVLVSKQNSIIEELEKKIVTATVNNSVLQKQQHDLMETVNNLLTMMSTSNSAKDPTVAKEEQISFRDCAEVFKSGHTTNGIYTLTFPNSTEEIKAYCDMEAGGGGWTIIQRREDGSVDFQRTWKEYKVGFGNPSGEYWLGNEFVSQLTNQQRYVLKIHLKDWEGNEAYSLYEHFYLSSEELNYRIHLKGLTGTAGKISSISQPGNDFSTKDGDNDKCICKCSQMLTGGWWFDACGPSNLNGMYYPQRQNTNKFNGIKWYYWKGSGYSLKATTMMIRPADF

B1: Compound 47 (T): targeting peptide plus 0P linker (peptide)
peptide: acyl-QK(Ac)YQ[Hyp]LDE[ThA]DK(0P linker)TL[Phe(4-COOH)]DQFMLQQG-NH2
modifications: reading uncertain; also: printed as Q(AcK)Y Q(HP)L DE(ThA) DK(0P)T L(CO2H)FD QFM LQQ G
B2: Compound 39 (T): targeting peptide plus 0P linker (peptide)
peptide: QXYQPLDELDXTXYDQFMLQQG
modifications: not fully specified; N-term acyl cap; C-term NH2 cap; AcK at 2; 0P linker on K11; HF at 13
B3: Compound 52 (T): targeting peptide plus 0P linker (peptide)
peptide: QXYQPLDELDXTLYDQFMLQQG
modifications: not fully specified; N-term amido 2-PEG cap; C-term NH2 cap; AcK at 2; 0P linker on K11
B4: Compound 53 (T): targeting peptide plus 0P linker (peptide)
peptide: QXYQPLDELDXTLYDQFMLQQG
modifications: N-term acyl cap; C-term NH2 cap; (ClBnCarbamate)K at 2; 0P linker on K11
notes: only one IC50 printed, standing in column T
B5: Compound 55 (T): targeting peptide plus 0P linker (peptide)
peptide: QXYQPLDELDXTLYDQFMLQQG
modifications: N-term acyl cap; C-term NH2 cap; AcK at 2; Dap at 11 carrying the 0P linker
B6: Compound 25 (T): targeting peptide plus 4P linker (peptide)
peptide: QNYQPLDELDXTLYDQFMLQQG
modifications: not fully specified; N-term acyl cap; C-term NH2 cap; 4P linker on K11
B7: Compound 60 (T): targeting peptide plus 0P linker (peptide)
peptide: QHYQPLDELDXTLYDQFMLQQG
modifications: not fully specified; N-term acyl cap; C-term NH2 cap; 0P linker on K11
B8: Compound 27 (T): targeting peptide plus 0P linker (peptide)
peptide: QKYQPLDELDXTLYDQFMLQQG
modifications: not fully specified; N-term acyl cap; C-term NH2 cap; 0P linker on K11
B9: Compound 59 (T): targeting peptide plus 0P linker (peptide)
peptide: QRYQPLDELDXTLYDQFMLQQG
modifications: not fully specified; N-term acyl cap; C-term NH2 cap; 0P linker on K11
B10: Compound 62 (T): targeting peptide plus 0P linker (peptide)
peptide: acyl-QK(Ac)YQPLDEK(Ac)DK(0P linker)TL[Phe(4-COOH)]DQFMLQQG-NH2
modifications: reading uncertain; also: printed as Q(AcK)Y QPL DE(AcK) DK(0P)T L(CF)D QFM LQQ G
B11: Compound 34 (T): targeting peptide plus 0P linker (peptide)
peptide: QXYQXLDELDXTLYDQFMLQQG
modifications: not fully specified; N-term acyl cap; C-term NH2 cap; AcK at 2; DHP at 5 (printed D(HP)); 0P linker on K11
B12: Compound 56 (T): targeting peptide plus 0P linker (peptide)
peptide: acyl-QNYQPLDELDK(0P linker)TL[Bpa]DQFMLQQG-NH2
modifications: reading uncertain; also: printed as QNY QPL DEL DK(0P)T L(BPA)D QFM LQQ G
B13: Compound 61 (T): targeting peptide plus 0P linker (peptide)
peptide: QXYQPLDELDXTLYDQFMLQQG
modifications: not fully specified; N-term acyl cap; C-term NH2 cap; NicK (nicotinyl lysine) at 2; 0P linker on K11
notes: as for B4
B14: Compound 26 (T): targeting peptide plus 0P linker (peptide)
peptide: XKYQPLDELDKTLYDQFMLQQG
modifications: not fully specified; 0P linker at the N-terminus (no acyl cap); C-term NH2 cap
B15: Compound 54 (T): targeting peptide plus 0P linker (peptide)
peptide: QXYQPLDELDXTLYDQFMLQQG
modifications: N-term acyl cap; C-term NH2 cap; AcK at 2; Dab at 11 carrying the 0P linker
B16: Compound 46 (T): targeting peptide plus 0P linker (peptide)
peptide: acyl-QK(Ac)YQ[Hyp]LDE[ThA]DK(0P linker)TL[Bpa]DQFMLQQG-NH2
modifications: reading uncertain
B17: Compound 48 (T): targeting peptide plus 0P linker (peptide)
peptide: acyl-QK(Ac)YQPLDEK(Ac)DK(0P linker)TL[Phe(4-NO2)]DQFMLQQG-NH2
modifications: reading uncertain; also: printed as Q(AcK)Y QPL DE(AcK) DK(0P)T L(NO2F)D QFM LQQ G
B18: Compound 41 (T): targeting peptide plus 0P linker (peptide)
peptide: QXYQPLDELDXTXYDQFMLQQG
modifications: not fully specified; N-term acyl cap; C-term NH2 cap; AcK at 2; 0P linker on K11; Nva at 13
B19: Compound 49 (T): targeting peptide plus 0P linker (peptide)
peptide: QXYQPLDELDXTLYDQFMLQQG
modifications: N-term DCB (dichlorobenzoyl) cap; C-term NH2 cap; AcK at 2; 0P linker on K11
B20: Compound 35 (T): targeting peptide plus 0P linker (peptide)
peptide: QXYQXLDELDXTLYDQFMLQQG
modifications: not fully specified; N-term acyl cap; C-term NH2 cap; AcK at 2; HP at 5; 0P linker on K11
B21: Compound 42 (T): targeting peptide plus 0P linker (peptide)
peptide: QXYQPLDELDXTXYDQFMLQQG
modifications: not fully specified; N-term acyl cap; C-term NH2 cap; AcK at 2; 0P linker on K11; HL at 13
B22: Compound 33 (T): targeting peptide plus 0P linker (peptide)
peptide: QK(Ac)YQPLDEK(0P linker)DETLYDQFMLQQG
modifications: not fully specified (N-terminus, C-terminus); printed as Q(AcK)Y QPL DEK(0P) DET LYD QFM LQQ G; reading uncertain
B23: Compound 45 (T): targeting peptide plus 0P linker (peptide)
peptide: QK(Ac)YQ[Hyp]LDE[ThA]DK(0P linker)TL[Phe(4-NO2)]DQFMLQQG
modifications: not fully specified (N-terminus, C-terminus); printed as Q(AcK)Y Q(HP)L DE(ThA) DK(0P)T L(NO2F)D QFM LQQ G; reading uncertain
B24: Compound 24 (T): targeting peptide plus 4P linker (peptide)
peptide: QXYQPLDELDXTLYDQFMLQQG
modifications: not fully specified; N-term acyl cap; C-term NH2 cap; AcK at 2; 4P linker on K11
B25: Compound 44 (T): targeting peptide plus 0P linker (peptide)
peptide: QXYQPLDELDXTLFDQFMLQQG
modifications: not fully specified; N-term acyl cap; C-term NH2 cap; AcK at 2; 0P linker on K11
B26: Compound 36 (T): targeting peptide plus 0P linker (peptide)
peptide: QXYQPLDELDXTIYDQFMLQQG
modifications: not fully specified; N-term acyl cap; C-term NH2 cap; AcK at 2; 0P linker on K11
B27: Compound 37 (T): targeting peptide plus 0P linker (peptide)
peptide: QXYQPLDEIDXTLYDQFMLQQG
modifications: not fully specified; N-term acyl cap; C-term NH2 cap; AcK at 2; 0P linker on K11
B28: Compound 28 (T): targeting peptide plus 0P linker (peptide)
peptide: QNYQPLDELDXTLYDQFMLQQG
modifications: not fully specified; N-term acyl cap; C-term NH2 cap; 0P linker on K11
B29: Compound 51 (T): targeting peptide plus 0P linker (peptide)
peptide: QXYQPLDELDXTLYDQFMLQQG
modifications: not fully specified; N-term PyC (pyridinyl carboxylate) cap; C-term NH2 cap; AcK at 2; 0P linker on K11
B30: Compound 57 (T): targeting peptide plus 0P linker (peptide)
peptide: QNYQPLDELDK(0P linker)TL[Phe(4-COOH)]DQFMLQQG
modifications: not fully specified (N-terminus, C-terminus); printed as QNY QPL DEL DK(0P)T L(CF)D QFM LQQ G; reading uncertain
B31: Compound 30 (T): targeting peptide plus 0P linker (peptide)
peptide: QXYQPLDEXDXTLYDQFMLQQG
modifications: not fully specified; N-term acyl cap; C-term NH2 cap; AcK at 2; 0P linker on K9; AcK at 11
B32: Compound 29 (T): targeting peptide plus 0P linker (peptide)
peptide: QXYQPLDELDXTLYDQFMLQQG
modifications: not fully specified; N-term acyl cap; C-term NH2 cap; AcK at 2; 0P linker on K11
B33: Compound 50 (T): targeting peptide plus 0P linker (peptide)
peptide: QXYQPLDELDXTLYDQFMLQQG
modifications: N-term DFB (difluorobenzoyl) cap; C-term NH2 cap; AcK at 2; 0P linker on K11
B34: Compound 23: Ang-2 binding peptide alone (peptide)
peptide: QNYQPLDELDKTLYDQFMLQQG-NH2
modifications: not fully specified (N-terminus); also: N-term acyl cap, acyl not given here
notes: not conjugated to linker or antibody
B35: Compound 84 (T): targeting peptide plus 0P linker (peptide)
peptide: Ac-QK(Ac)YQPLDEK(Ac)DK(0P linker)TLYDQFMLQ-NH2
modifications: reading uncertain
notes: C-terminal truncation of 43(a) by 2 residues
B36: Compound 85 (T): targeting peptide plus 0P linker (peptide)
peptide: Ac-QK(Ac)YQPLDEK(Ac)DK(0P linker)TLYDQFML-NH2
modifications: reading uncertain
notes: C-terminal truncation of 43(a) by 3 residues
B37: Compound 43(a) (T): targeting peptide plus 0P linker (peptide)
peptide: QXYQPLDEXDXTLYDQFMLQQG
modifications: N-term ac; C-term am; AcK at 2; AcK at 9; 0P linker on K11
B38: Compound 86 (T): targeting peptide plus 0P linker (peptide)
peptide: Ac-QK(Ac)YQPLDEK(Ac)DK(0P linker)TLYDQFM-NH2
modifications: reading uncertain
notes: C-terminal truncation of 43(a) by 4 residues
B39: Compound 83 (T): targeting peptide plus 0P linker (peptide)
peptide: Ac-QK(Ac)YQPLDEK(Ac)DK(0P linker)TLYDQFMLQQ-NH2
modifications: reading uncertain
notes: C-terminal truncation of 43(a) by 1 residue

Molecular target: T1, human angiopoietin-2 protein
Test: competitive ELISA, coated Ang-2, 0.25 nM hTie-2-Fc; T form
Protocol: (§1) For competitive ELISA, human angiopoietin-2 protein and Tie-2-Fc (R&D Systems) were reconstituted without carrier protein. Mouse anti-human Tie-2 (Pharmingen) was used as the primary antibody and goat anti-mouse-IgG1-HRP (Pierce) was used as the secondary antibody. TMB substrate from Pierce was used.
(§2) High-binding half-well plates were coated with Ang-2 (100 ng/well) in 50 μl PBS and incubated at 4° C. overnight. Plates were washed three times with washing buffer (0.1% Tween 20, PBS, pH 7.4) and blocked with Superblock (Scytek), 100 μl/well at room temperature (“RT”) for 1 hour. After removing the blocking solution, 50 μl of an Ang-2 binding peptide compound (1 uM and 5× serial dilution) in the presence of 0.25 nM hTie-2-Fc using Superblock as diluent was added and incubated at RT for 2 hours. Plates were washed 3 times with washing buffer. Then, 50 ul of 0.1 ug/ml mouse anti-human Tie-2 diluted in Superblock added and incubated at RT for 1 hour. Following incubation, 50 ul of 1:5,000 dilution of goat anti-mouse IgG-HRP in Superblock was then added and incubated at RT for one hour. After washing 3 times, 50 μl (25 μl TMB+25 μl H₂O₂) was added, and incubated for 3-5 minutes. Color development was monitored and stopped with 25 μl of 2 M H₂SO₄. OD450 nm with a correction wavelength of 540 nm was measured.

IC50 [nM] | Binder
43.3 | B1
4890 | B2
134 | B3
147 | B4
598 | B5
300 | B6
214 | B7
29 | B8
177 | B9
499 | B10
224 | B11
92.2 | B12
83.9 | B13
32.3 | B14
292 | B15
82.7 | B16
82.4 | B17

IC50 [nM] | Binder
1340 | B18
28.4 | B19
121 | B20
1340 | B21
370 | B22
24.7 | B23
207 | B24
36.9 | B25
2410 | B26
1270 | B27
175 | B28
14.3 | B29
110 | B30
279 | B31
83.3 | B32
33 | B33

Molecular target: T1, human angiopoietin-2 protein
Test: competitive ELISA, coated Ang-2, 0.25 nM hTie-2-Fc; peptide alone
Protocol: as §1, §2

IC50 [nM] | Binder
27.8 | B34

Molecular target: T1, human angiopoietin-2 protein
Test: competition ELISA, coated Ang-2, competitor compound 43-0P-h38c2 10 ng/mL; T form
Protocol: Recombinant human Ang-2 was coated on microtiter plates at 0.5 μg/mL in 100 μL , overnight at 2-8° C. Plates were washed between all steps and all subsequent incubations occurred at room temperature. Plates were blocked with 250 μL per well of SuperBlock for 1-3 hours. Test compounds were pre-mixed with compound 43 linked to linker (as shown in FIG. 3) and h38c2 AT 10 ng/mL. Peptide mixtures in 100 μL were then added at the listed final concentrations, then plates sealed, and incubated for 1-2 hours. Bound compounds 43 was detected with 100 uL of a 1:20,000 dilution of HRP-labeled anti-human IgG reagent for solution.

IC50 [nM] | Binder
190 | B35
444 | B36
139 | B37
847 | B38
111 | B39
